Experimental data reported in patent US20260209344A1 (NONA BIOSCIENCES SUZHOU, published 2026).
Substitutions are numbered along the chain they refer to. Values belong to the binder of their own block, whether it stands above or below them.

How the values were obtained:
[1] = target: human CLDN18.2 (claudin 18.2) (human); assay: cell-based or functional assay
[2] = target: T1, human CLDN18.2 (claudin 18.2) (human); assay: FACS on NUGC4_D8 cells endogenously expressing CLDN18.2
T1 construct: HEK293 hCLDN18.2) or endogenously on NUGC4_D8 cells; also called hCLDN18.2; CLD18A2
Method: (§1) The cell density was adjusted to 10⁶ cells/ml, and 50 μl of cell suspension was added to each well of a 96-well plate. Antibodies were diluted to different concentrations with FACS buffer and 50 μl of antibody dilution was added to each well of the 96-well plate. After incubation at 4° C. for 2 hours, the plate was washed 2 times with FACS buffer. […] After incubation at 4° C. for 1 hour, the plate was washed 2 times with FACS buffer. The cells were resuspended with fixative for monitoring the fluorescence of the cells using a FACS machine (ACEA NovoCyte).

[3] = target: T1, human CLDN18.2 (claudin 18.2); assay: FACS on HEK293 hCLDN18.2 cells, APC anti-human IgG secondary
Method: as §1

[4] = target: T1, human CLDN18.2 (claudin 18.2); assay: cell-based or functional assay; remark: listed apart in the source
[5] = target: T1, human CLDN18.2 (claudin 18.2); assay: cell-based or functional assay; remark: listed apart in the source
[6] = target: T2, human CLDN18.1 (claudin 18.1) (human, UniProt P56856 1-261); assay: FACS on HEK293 hCLDN18.1 cells
T2 construct: whole, on cells; HEK293 hCLDN18.1); also called hCLDN18.1; CLDN18A1
T2 sequence (P56856 whole entry): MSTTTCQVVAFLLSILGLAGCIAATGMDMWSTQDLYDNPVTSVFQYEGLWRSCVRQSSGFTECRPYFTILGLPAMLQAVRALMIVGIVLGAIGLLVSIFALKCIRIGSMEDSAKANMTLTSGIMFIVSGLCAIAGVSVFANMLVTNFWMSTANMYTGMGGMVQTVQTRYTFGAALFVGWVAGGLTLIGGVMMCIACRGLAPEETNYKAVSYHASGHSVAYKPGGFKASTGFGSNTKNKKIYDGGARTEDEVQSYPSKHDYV
Method: as §1

[7] = target: T1, human CLDN18.2 (claudin 18.2); assay: FACS on NUGC4_D8 cells endogenously expressing CLDN18.2; remark: listed apart in the source
Method: as §1

[8] = target: T1, human CLDN18.2 (claudin 18.2); assay: FACS on NUGC4_D8 cells
Method: as §1

- binding result [8]: binds
- binding result [6]: binds
B4: PR003897 (antibody, human IgG1, kappa)
heavy: QVQLVESGGGLVQPGGSLRLSCATSGFTFSSYAMSWVRQAPGKGLEWVSLISGSGGSPYYADSVKGRFTISRDNSKNTLYLQMNSLRAEDTAVYYCAKGVVNWGSLFDYWGQGTLVTVSSASTKGPSVFPLAPSSKSTSGGTAALGCLVKDYFPEPVTVSWNSGALTSGVHTFPAVLQSSGLYSLSSVVTVPSSSLGTQTYICNVNHKPSNTKVDKKVEPKSCDKTHTCPPCPAPELLGGPDVFLFPPKPKDTLMISRTPEVTCVVVDVSHEDPEVQFNWYVDGVEVHNAKTKPREEQFNSTFRVVSVLTVVHQDWLNGKEYKCKVSNKALPAPEEKTISKTKGQPREPQVYTLPPSREEMTKNQVSLTCLVKGFYPSDIAVEWESNGQPENNYKTTPPMLDSDGSFFLYSKLTVDKSRWQQGNVFSCSVMHEALHNHYTQKSLSLSPGK
light: not shown

- binding result [6]: binds
B5: PR003292 (antibody, human IgG1, kappa)
heavy: EVQLLESGGGLVQPGGSLRLSCAASGFTFSSFVMSWVRQAPGKGLEWVSTISGSGRSTYYADSVKGRFTISRDNSKNTLHLQMNSLRAEDTAVYYCAKDAAAAGTKFDYWGQGTLVTVSSASTKGPSVFPLAPSSKSTSGGTAALGCLVKDYFPEPVTVSWNSGALTSGVHTFPAVLQSSGLYSLSSVVTVPSSSLGTQTYICNVNHKPSNTKVDKKVEPKSCDKTHTCPPCPAPELLGGPSVFLFPPKPKDTLYITREPEVTCVVVDVSHEDPEVKFNWYVDGVEVHNAKTKPREEQYNSTYRVVSVLTVLHQDWLNGKEYKCKVSNKALPAPIEKTISKAKGQPREPQVYTLPPSREEMTKNQVSLTCLVKGFYPSDIAVEWESNGQPENNYKTTPPVLDSDGSFFLYSKLTVDKSRWQQGNVFSCSVMHEALHNHYTQKSLSLSPGK
light: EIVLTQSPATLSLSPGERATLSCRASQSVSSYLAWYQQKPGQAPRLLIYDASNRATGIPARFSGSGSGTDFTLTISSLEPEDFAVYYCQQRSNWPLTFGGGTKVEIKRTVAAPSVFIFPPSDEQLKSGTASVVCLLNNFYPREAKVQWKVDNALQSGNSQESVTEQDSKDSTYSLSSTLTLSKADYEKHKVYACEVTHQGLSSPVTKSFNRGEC

- binding result [6]: binds
B6: PR003293 (antibody, human IgG1, kappa)
heavy: B5 heavy with S242D, I335E
light: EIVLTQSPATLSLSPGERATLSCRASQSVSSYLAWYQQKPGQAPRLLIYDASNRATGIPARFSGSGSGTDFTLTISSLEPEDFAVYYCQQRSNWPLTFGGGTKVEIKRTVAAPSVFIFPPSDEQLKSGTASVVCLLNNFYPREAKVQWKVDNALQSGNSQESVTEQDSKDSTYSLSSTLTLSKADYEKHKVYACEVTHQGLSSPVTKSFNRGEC

- binding result [6]: binds
B7: PR003340 (antibody, human IgG1, kappa)
heavy: EVQLLESGGGLVQPGGSLRLSCAASGFTFSSFVMSWVRQAPGKGLEWVSTISGSGRSTYYADSVKGRFTISRDNSKNTLHLQMNSLRAEDTAVYYCAKDAAAAGTKFDYWGQGTLVTVSSASTKGPSVFPLAPSSKSTSGGTAALGCLVKDYFPEPVTVSWNSGALTSGVHTFPAVLQSSGLYSLSSVVTVPSSSLGTQTYICNVNHKPSNTKVDKKVEPKSCDKTHTCPPCPAPELLGGPDVFLFPPKPKDTLMISRTPEVTCVVVDVSHEDPEVQFNWYVDGVEVHNAKTKPREEQFNSTFRVVSVLTVVHQDWLNGKEYKCKVSNKALPAPEEKTISKTKGQPREPQVYTLPPSREEMTKNQVSLTCLVKGFYPSDIAVEWESNGQPENNYKTTPPMLDSDGSFFLYSKLTVDKSRWQQGNVFSCSVMHEALHNHYTQKSLSLSPGK
light: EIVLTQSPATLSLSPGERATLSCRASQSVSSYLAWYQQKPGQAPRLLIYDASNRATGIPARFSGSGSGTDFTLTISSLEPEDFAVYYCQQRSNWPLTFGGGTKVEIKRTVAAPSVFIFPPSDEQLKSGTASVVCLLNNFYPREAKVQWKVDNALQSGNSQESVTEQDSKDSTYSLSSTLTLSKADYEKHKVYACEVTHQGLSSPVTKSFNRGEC

More lines, now with the values behind:

B1: IMAB362 analogue (antibody, human IgG1, kappa, V domains shown)
VH: QVQLQQPGAELVRPGASVKLSCKASGYTFTSYWINWVKQRPGQGLEWIGNIYPSDSYTNYNQKFKDKATLTVDKSSSTAYMQLSSPTSEDSAVYYCTRSWRGNSFDYWGQGTTLTVSS
VL: DIVMTQSPSSLTVTAGEKVTMSCKSSQSLLNSGNQKNYLTWYQQKPGQPPKLLIYWASTRESGVPDRFTGSGSGTDFTLTISSVQAEDLAVYYCQNDYSYPFTFGSGTKLEIKR
notes: Home-made positive control; variable region identical to IMAB362, a few amino acids differ in the constant region; also called PR000400
- EC50 (nM), ADCC with human PBMC on NUGC4_D8 cells [1]: 0.91 nM
- EC50 [2]: 20.7 nM
- EC50 [3]: 4 nM
- EC50 (nM), endocytosis in NUGC4_D8 cells (FACS) [4]: 0.4 nM
- EC50 (nM), CDC on HEK293 hCLDN18.2 cells [5]: 1.07 nM

B2: PR002725 (antibody, human IgG1, kappa, V domains shown)
VH: EVQLLESGGGLVQPGGSLRLSCAASGFTFSGYVMSWVRQAPGKGLEWVSAISGSGGSKYYADSVKGRFTISRDNSKNTLYLQMNSLRAEDTAVYYCAKGDIAVLLFDYWGQGTLVTVSS
VL: EMVMTQSPATLSVSPGERATLSCRASQSVSRNLAWFQQKPGQAPRLLIYGASTRATGIPARFSGSGSGTEFTLTISSLQSEDFAVYYCQQYNNWPLTFGGGTKVEIKR
notes: Human IgG1/kappa; also called clone 11C12-13C2
- binding result [6]: binds

B3: PR002727 (antibody, human IgG1, kappa, V domains shown)
VH: EVQLVESGGGVVQPGRSLRLSCAASGFTFSSYGMHWVRQAPGKGLEWVAVIWYDGSNKYYADSVKGRFTISRDNSKNTLYLQMNSLRAEDTAVYYCAKDGYYGSGTYYYYVMNAWGQGASVTVSS
VL: B2 VL with M2I, A19V, R31S, F36Y, N93Y
notes: Human IgG1/kappa; also called clone 31H3E2
- binding result [7]: binds
